B1: Emerin (Homo sapiens), P50402 (parent)
chain: MDNYADLSDTELTTLLRRYNIPHGPVVGSTRRLYEKKIFEYETQRRRLSPPSSSAASSYSFSDLNSTRGDADMYDLPKKEDALLYQSKGYNDDYYEESYFTTRTYGEPESAGPSRAVRQSVTSFPDADAFHHQVHDDDLLSSSEEECKDRERPMYGRDSAYQSITHYRPVSASRSSLDLSYYPTSSSTSFMSSSSSSSSWLTRRAIRPENRAPGAGLGQDRQVPLWGQLLLFLVFVIVLFFIYHFMQAEEGNPF

Variants of B1 are the subject of the assay “SYNE1, Q8NF91-3”. As to conditions: with SYNE1, Q8NF91-3.
In the assay “SYNE2, Q8WXH0-3” the parent is B1. The conditions noted are these: with SYNE2, Q8WXH0-3.
SYNE2, Q8WXH0-3, sequence (Q8WXH0 6031-6885): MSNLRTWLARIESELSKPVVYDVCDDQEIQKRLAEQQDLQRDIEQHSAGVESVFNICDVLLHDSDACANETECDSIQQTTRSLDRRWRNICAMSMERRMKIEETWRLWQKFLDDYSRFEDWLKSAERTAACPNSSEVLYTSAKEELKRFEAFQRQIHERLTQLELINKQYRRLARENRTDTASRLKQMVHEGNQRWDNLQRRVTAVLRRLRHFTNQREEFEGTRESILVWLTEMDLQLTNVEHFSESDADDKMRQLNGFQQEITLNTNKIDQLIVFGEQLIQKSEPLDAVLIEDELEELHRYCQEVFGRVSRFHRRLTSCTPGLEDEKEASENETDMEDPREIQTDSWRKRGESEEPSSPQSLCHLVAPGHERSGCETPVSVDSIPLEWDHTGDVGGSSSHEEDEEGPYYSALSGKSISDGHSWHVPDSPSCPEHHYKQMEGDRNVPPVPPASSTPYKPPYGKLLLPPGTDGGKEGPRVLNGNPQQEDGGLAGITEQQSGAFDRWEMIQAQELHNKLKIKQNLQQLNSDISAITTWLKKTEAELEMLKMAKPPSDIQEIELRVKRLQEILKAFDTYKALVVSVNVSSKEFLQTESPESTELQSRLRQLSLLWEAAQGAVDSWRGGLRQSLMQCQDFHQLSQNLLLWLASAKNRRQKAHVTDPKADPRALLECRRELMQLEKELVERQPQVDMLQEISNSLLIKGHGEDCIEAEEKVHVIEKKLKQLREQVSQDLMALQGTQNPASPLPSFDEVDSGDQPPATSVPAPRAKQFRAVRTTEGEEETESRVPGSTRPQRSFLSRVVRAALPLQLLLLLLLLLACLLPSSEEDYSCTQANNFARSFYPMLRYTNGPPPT

SYNE1, Q8NF91-3, sequence (Q8NF91 other isoform, or with tags, fused parts or gaps): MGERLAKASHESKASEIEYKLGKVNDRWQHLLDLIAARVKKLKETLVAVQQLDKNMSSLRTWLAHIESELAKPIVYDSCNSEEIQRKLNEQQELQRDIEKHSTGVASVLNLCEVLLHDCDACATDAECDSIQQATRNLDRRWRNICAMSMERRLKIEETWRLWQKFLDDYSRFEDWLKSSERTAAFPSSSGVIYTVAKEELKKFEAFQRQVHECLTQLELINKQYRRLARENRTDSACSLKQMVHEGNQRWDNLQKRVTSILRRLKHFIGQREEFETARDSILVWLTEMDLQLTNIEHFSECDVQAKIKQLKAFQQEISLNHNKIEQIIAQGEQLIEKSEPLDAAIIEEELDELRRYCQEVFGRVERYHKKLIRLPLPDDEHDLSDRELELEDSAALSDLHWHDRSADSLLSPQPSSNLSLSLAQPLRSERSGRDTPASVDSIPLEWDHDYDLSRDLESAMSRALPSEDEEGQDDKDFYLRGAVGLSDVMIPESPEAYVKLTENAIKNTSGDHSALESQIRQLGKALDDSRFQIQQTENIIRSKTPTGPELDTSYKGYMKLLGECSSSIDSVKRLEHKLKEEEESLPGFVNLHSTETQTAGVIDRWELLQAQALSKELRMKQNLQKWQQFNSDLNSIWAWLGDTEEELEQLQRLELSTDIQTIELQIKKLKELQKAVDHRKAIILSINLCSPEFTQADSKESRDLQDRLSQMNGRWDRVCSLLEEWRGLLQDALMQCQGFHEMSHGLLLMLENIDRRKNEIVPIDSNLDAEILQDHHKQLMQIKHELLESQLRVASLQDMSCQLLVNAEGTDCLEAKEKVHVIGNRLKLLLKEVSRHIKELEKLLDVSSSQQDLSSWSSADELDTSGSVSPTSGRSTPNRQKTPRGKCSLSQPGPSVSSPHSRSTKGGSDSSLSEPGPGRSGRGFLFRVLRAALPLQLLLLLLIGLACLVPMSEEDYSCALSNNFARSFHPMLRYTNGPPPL

For the variant MDNYADLSDTELTTLLRRYNIPHGPVVGSTRRLYEKKIFEYETQRRRLSPPSSSAASSYSFSDLNSTRGDADMYDLPKKEDALLYQSKGYNDDYYEESYFTTRTYGEPESAGPSRAVRQSVTSFPDADAFHHQVHDDDLLSSSEEECKDRERPMYGRDSAYQSITHYRPVSASRSSLDLSYYHTSSSTSFMSSSSSSSSWLTRRAIRPENRAPGAGLGQDRQVPLWGQLLLFLVFVIVLFFIYHFMQAEEGNPF [P183H], the “effect of a mutation on the interaction” value is “increasing interaction strength” with SYNE1, Q8NF91-3 and “increasing interaction strength” with SYNE2, Q8WXH0-3.

For MDNYADLSDTELTTLLRRYNIPHGPVVGSTRRLYEKKIFEYETQRRRLSPPSSSAASSYSFSDLNSTRGDADMYDLPKKEDALLYQSKGYNDDYYEESYFTTRTYGEPESAGPSRAVRQSVTSFPDADAFHHQVHDDDLLSSSEEECKDRERPMYGRDSAYQSITHYRPVSASRSSLDLSYYTTSSSTSFMSSSSSSSSWLTRRAIRPENRAPGAGLGQDRQVPLWGQLLLFLVFVIVLFFIYHFMQAEEGNPF [P183T], the “effect of a mutation on the interaction” value with SYNE1, Q8NF91-3 is “decreasing interaction strength”; with SYNE2, Q8WXH0-3, “increasing interaction strength”.

In the case of MDNYADLSDTELTTLLRRYNIPHGPVVGSTRRLYEKKIFEYETQRRRLSPPSSSAASSYSFSDLNSTRGDADMYDLPKKEDALLYQSKGYNDDYYEESYFTTRTYGEPESAGPSRAVRQSVTSFPDADAFHHHVHDDDLLSSSEEECKDRERPMYGRDSAYQSITHYRPVSASRSSLDLSYYPTSSSTSFMSSSSSSSSWLTRRAIRPENRAPGAGLGQDRQVPLWGQLLLFLVFVIVLFFIYHFMQAEEGNPF [Q133H], in the assay with SYNE1, Q8NF91-3, the “effect of a mutation on the interaction” value is reported as “increasing interaction strength”.
